# Data: US11376333B2, “mTG substrates for covalent conjugation of compounds” (COVALAB, priority 2013, dated 2022)
# Assays:
# [1] = target: T1, microbial transglutaminase (mTG) (Streptomyces mobaraensis, UniProt P81453); experiment: Colorimetric assay: mTG incorporation of biotinylated peptides into immobilized spermine, apparent Km; assay type: biochemical; conditions: biotinylated peptides, spermine plate
# T1 construct: purchased Covalab, France opr 0054
# T1 sequence (P81453 77-407): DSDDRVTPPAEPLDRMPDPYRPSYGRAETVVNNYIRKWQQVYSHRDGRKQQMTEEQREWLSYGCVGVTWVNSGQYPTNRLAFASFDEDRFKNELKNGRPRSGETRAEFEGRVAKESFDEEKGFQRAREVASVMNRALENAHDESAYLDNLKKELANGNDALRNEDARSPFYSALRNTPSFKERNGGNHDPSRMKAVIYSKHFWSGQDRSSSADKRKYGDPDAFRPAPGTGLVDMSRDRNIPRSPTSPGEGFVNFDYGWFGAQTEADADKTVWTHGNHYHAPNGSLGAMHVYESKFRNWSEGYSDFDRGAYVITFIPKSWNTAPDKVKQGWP
# From the text: To produce the Covabtest-spm plate, the procedure previously described in Mily et al (2009) was used.
# For the screening of the peptide listed in table 2 (Biotinylated peptides) the inventors used our colorimetric assay to measure transglutaminase 2 (TG2) cross linking activity (Mily et al, 2009) and commercialized under ref opr0033 in which mTG was used instead of TG2 and described in this experience. The principle of the method is based on the transamidation activity of mTG, using covalently coupled spermine to carboxy-substituted polystyrene plates and biotinylated peptides. The assay consists of the incorporation of the glutamine gamma-carboxamide group into the immobilized spermine. The amount of biotinylated peptide bound to the plate, as measured by the activity of streptavidin-peroxidase, is directly proportional to the TG activity. Absorbance was measured at 450 nm using the microplate reader.
# In order to compare the affinity of mTG to the preferred substrate, the peptides were used at different concentrations ranging from 160, 80, 40, 20, 10, 5, 2.5 and 0 μM. Then the apparent Km were determined for each peptide and were calculated by Lineweaver-Burk method (1/Absorbance=f(1/[mTG (μM)]).
# In this experiment, spermine was conjugated into the plate as described in B-II-4. Biotinylated peptides described in table 3 were incubated with mTG at different concentration (160, 80, 40, 20, 10, 5, 2.5 and 0 μM). […] Even if E seems to abolish the reactivity of the peptides this cannot be due to the negative charge only but also to the nature of the amino acides at the position X+1, X+2 and X+3. […] This is confirmed with LN-11Q8Q10 peptide.
# [2] = target: T1, microbial transglutaminase (mTG); experiment: mTG incorporation of biot-cad into coated BSA-peptide conjugate, with free-peptide competition; assay type: biochemical; conditions: 150 μM free peptide, mTG 100 ng/ml
# Experimental: 2 mg of each peptide was dissolved in 1 ml of deionized water and 150 nmoles were mixed with 0.5 mg BSA solubilized in 50 mM bicarbonate buffer pH9.5. After shaking, glutaraldehyde was added at a final concentration of 0.25% (v/v). The mixtures were kept at room temperature during 16 hrs under gentle shaking. At the end of this incubation time, sodium borohydride was added at a final concentration of 10 mg/ml to stabilize the cross-linking between BSA and the peptides. After 2 hours each mixture of peptide-BSA was dialyzed separately in PBS to remove any free peptides.
# High binding 96 wells-microtiter plates (Costar) were used to immobilize BSA-peptide and to human IgG-peptide conjugates prepared as described in M-4 and M-5. For these experiments, conjugates were prepared at 50 μg/ml in 50 mM sodium carbonate buffer pH 9 and 100 μl of each solution was dispensed in the number of wells needed for the experiment. After overnight incubation at 4° C., the plates were washed extensively with Tris Buffer Saline (TBS) and were ready to be used for TG activity.
# The same procedure was used as described in B-II-1
# In the literature its well known that many proteins are not substrate of transglutaminase even if many glutamine residues are present in their structures (Gorman J J, Folk J E. J Biol Chem. 1984 Jul. 25; 259(14):9007-10). […]
sequence,measurement,setting,value
HDLMWPDVYSQH (Peptide HH12Q11),reactivity of peptide with mTG (text on Table 3),[1],highly reactive with mTG
same,effect of added free peptide on mTG reactivity on BSA-HH12Q11,[2],decreased
